These are literature values, as cited in paper PMC12564133.

For this series, the target named is BKCa channel (UniProt Q12791).
UniProt Q12791, sequence (Q12791 whole entry): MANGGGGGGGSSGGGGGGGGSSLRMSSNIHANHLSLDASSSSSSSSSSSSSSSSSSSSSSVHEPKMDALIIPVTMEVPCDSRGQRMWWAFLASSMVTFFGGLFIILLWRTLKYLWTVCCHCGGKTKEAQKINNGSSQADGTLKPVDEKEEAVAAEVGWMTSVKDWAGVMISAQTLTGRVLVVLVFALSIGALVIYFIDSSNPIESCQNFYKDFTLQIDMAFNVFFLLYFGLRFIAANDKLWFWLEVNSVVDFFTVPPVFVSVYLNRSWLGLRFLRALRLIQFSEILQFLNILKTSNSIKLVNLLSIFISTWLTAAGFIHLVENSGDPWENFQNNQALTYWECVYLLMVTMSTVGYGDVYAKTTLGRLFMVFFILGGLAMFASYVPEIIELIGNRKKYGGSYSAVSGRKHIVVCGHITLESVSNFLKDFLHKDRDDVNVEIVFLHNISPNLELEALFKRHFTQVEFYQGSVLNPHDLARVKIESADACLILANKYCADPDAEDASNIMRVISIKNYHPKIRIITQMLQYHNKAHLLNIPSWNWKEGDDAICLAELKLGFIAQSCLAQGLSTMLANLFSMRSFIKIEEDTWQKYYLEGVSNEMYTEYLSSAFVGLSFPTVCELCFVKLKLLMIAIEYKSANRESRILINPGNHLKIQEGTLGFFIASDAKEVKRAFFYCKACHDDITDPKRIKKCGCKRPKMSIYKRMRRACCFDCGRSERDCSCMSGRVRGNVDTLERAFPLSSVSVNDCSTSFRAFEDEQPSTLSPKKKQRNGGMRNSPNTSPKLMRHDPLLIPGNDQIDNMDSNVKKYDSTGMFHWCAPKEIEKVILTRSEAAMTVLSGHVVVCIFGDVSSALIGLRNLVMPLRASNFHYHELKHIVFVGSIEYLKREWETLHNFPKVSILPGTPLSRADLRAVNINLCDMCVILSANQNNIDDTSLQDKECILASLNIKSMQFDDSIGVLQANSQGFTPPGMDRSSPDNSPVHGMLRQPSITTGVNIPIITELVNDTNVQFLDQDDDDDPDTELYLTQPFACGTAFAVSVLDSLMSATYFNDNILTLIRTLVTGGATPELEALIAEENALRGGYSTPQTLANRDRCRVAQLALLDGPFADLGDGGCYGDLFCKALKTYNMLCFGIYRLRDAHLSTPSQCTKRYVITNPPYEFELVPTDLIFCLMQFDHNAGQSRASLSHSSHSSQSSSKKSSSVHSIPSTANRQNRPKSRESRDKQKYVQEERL

As for “Iberiotoxin (IbTX) (from UniProt P24663)”, the equilibrium dissociation constant (Kd) is 1.16 nM.
